Test results from article PMC5374107.

Target: ICAM-1D1D5-Fc::PFD1235w head structure complex (human | Plasmodium falciparum)
Experiment: SPR; Biacore T-200; dual binding: ICAM-1D1D5 Fc immobilized (1,800, 2,100 or 1,500 RU) on Protein A CM5 chip, head structure injected at 250 nM for 240 s, then EPCR injected, two-fold dilutions 250 nM to 16 nM, 30 µL/min, 240 s association, 720 s dissociation; 10 mM HEPES pH 8.0, 300 mM NaCl, 0.05% Tween-20; one-site kinetic model

B1: Recombinant His-tagged EPCR (receptor)
chain: SQDASDGLQRLHMLQISYFRDPYHVWYQGNASLGGHLTHVLEGPDTNTTIIQLQPLQEPESWARTQSGLQSYLLQFHGLVRLVHQERTLAFPLTIRCFLGCELPPEGSRAHVFFEVAVNGSSFVSFRPERALWQADTQVTSGVVTFTLQQLNAYNRTRYELREFLEDTCVQYVQKHISAENTKGSQTSRSYTSLVLGVLVGSFIIAGVAVGIFLCTGGRRC
modifications: biotin (biotinylated by BirA)
  Kd: 271 nM
  koff: 0.00103 s⁻¹
  kon: 3600 M⁻¹ s⁻¹
